This is an account of results in patent US20180185504A1 (Regeneron, published 2018).

This assay concerns the target T1, mouse PRLR with an HA tag on HEK293 cells (mouse, UniProt Q08501 20-608).
T1 construct: whole, on cells; also called HEK293/mPRLR; rodent PRLR; not shown: HA tag
T1 sequence (looked up): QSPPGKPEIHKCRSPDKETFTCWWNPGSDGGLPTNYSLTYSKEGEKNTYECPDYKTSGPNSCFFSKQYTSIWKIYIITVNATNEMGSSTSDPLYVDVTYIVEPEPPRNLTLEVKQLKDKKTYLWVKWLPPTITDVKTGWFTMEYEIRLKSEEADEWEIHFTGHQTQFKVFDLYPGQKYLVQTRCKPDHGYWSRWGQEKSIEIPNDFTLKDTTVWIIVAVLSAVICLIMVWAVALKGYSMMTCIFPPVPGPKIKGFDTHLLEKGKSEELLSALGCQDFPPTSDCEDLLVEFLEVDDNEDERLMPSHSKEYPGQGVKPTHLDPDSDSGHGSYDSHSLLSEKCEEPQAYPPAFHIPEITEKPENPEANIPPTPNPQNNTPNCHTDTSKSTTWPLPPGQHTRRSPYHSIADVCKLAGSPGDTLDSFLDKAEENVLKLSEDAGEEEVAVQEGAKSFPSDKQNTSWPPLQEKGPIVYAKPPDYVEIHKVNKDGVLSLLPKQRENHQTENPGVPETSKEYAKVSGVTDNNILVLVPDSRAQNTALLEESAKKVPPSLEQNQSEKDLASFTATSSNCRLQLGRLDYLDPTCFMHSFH
The assay is described as follows: FACS on HEK293/mPRLR cells.

B1: H1H6807P (antibody, V domains shown)
VH: QVQLVESGGGVVQPGRSLRLSCAASGFTFSDYNMHWVRQAPGKGLEWVAVIWYDGSNKHYADSVKGRFTISRDNSKNTLYLQMNSLRAEDTAVYYCARDGFTIFGMVLDYWGQGTLVTVSS
VL: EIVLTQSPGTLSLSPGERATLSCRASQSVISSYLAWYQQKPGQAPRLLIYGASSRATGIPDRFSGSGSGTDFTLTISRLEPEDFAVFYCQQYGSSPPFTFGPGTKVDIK
As to B1, the binding result is “no binding”.

B2: H1H6959N2 (antibody, human IgG1, V domains shown)
VH: EVQLVESGGGLVQPGRSLRLSCAASGFTFDDYAMHWVRQAPGKGLEWVSGISWHSGIIGYADSVKGRFTISRDNAKNSLYLQMNSLRTEDAALYYCAKIGSYFYFDSWGQGTLVTVSS
VL: EIVLTQSPGTLSLSPGERATLSCRASQSVSSNYLAWYQQKPGQAPRLLIYGASSRATGIPDRFSGSGSGTDFTLTISRLEPEDFAVYYCQQFGSSGYTFGQGTNLEIK
notes: Tested with human IgG1 Fc (H1H)
In the case of B2, the binding result is “no binding”.

B3: H1H6782P (antibody, human IgG1, V domains shown)
VH: EVQLVESGGGLVQPGRSLRLSCAASGFTFDDYAMHWVRQAPGKGLEWVSGIIWNSGHIGYGDSVKGRFTISRDNAKKSLYLQMNSLRAEDTALYYCARDSGRYQSYFDYWGQGTLVTVSS
VL: DIQMTQSPSTLSASVGDRVTITCRASHIISSWLAWYQQKPGKAPKVLIFKASSLESGVPSRFSGSGSGTEFTLTISSLQPDDFATYYCQQYNTYSRTFGQGTKVEIK
Turning to B3, the binding result is on record as “no binding”.

B4: H1H6800P (antibody, human IgG1, V domains shown)
VH: EVQLVESGGGLVQPGRSLRLSCAASGFTFDGYAMHWVRQGPGKGLEWVSGISWYSDTLGYADSVKGRFTISRDNAKNSLYLQMNSLRTEDTAFYYCAKISSSGWAFDYWGQGTLVTVSS
VL: EIVLTQSPGTLSLSPGERATLSCRASHSVSSAYLAWYQQKPGQTPRLLIYGTSSRATGIPDRFSGSGSGTDFTLTISRLEPEDFAVYYCQQYGSSPLFTFGPGTKVDIK
In the case of B4, the binding result is “no binding”.

B5: H1H6783P (antibody, human IgG1, V domains shown)
VH: QVQLQQSGPGLVKPSQTLSLTCAISGDSVSSNTFAWNWIRQSPSRGLEWLGRTYYRSKWYIDYAESVKSRITITPDTSKNQFSLQLNSVTPEDTALYYCAGGYTYAPRGAFDIWGQGTMVTVSS
VL: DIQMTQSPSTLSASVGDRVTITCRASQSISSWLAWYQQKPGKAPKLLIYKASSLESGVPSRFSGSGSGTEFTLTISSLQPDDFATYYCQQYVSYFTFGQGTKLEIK
As for B5, the binding result is recorded as “no binding”.

B6: H1H6790P (antibody, human IgG1, V domains shown)
VH: EVQLVESGGGLVQPGGSLRLSCAASGFTFSSYAMTWVRQAPGKGLEWVSAITGSVGNTYYADSVKGRFTISRDNSKNTLYLQMNSLGAEDTAEYYCAKGAGMTTNWYLDLWGRGTLVTVSS
VL: DIVMTQSPDSLAVSLGARATINCKSSQSVLYSSNNQNYLTWYQQKPGQPPKLLIKWASTRESGVPDRFSGSGSGTDFTLTISSLQAEDVAVYYCQQYASSPYTFGQGTKLEIK
For B6, the binding result is “no binding”.

B7: H1H6774P (antibody, human IgG1, V domains shown)
VH: EVQLVESGGGLAQPGGSLRLSCVASGFTFSTYWMSWVRQAPGKGLDWVGNIKQDGSEQNYVDSVRGRFTISRDNAKNSLFLQMNSLRAEDTGVYYCATLLTKGDYWGQGTLVTVSS
VL: DIQMTQSPSSLSASVGDSVTITCRASQDISNYLDWFQQKPGKAPKSLIYAASILQGGVPSRFSGSGYGTDFTLTISSLQPEDFATYYCRQYKTYPFTFGPGTKVDIK
For B7, the binding result was “no binding”.

B8: H1H6966N (antibody, human IgG1, V domains shown)
VH: QVQLVQSGAEVQKPGASVKVSCKVSGYTLTALSIHWVRQAPGKGLEWMGNFDPGDGETIHAQKFQGRVTMTGDTSTDTAYMELSSLRSEDTAVYYCVGVTFDYWGQGTLVTVSS
VL: EIVMTQSPATLSVSPGERATLSCRASQSVASNLAWYQQKPGQAPRLLLYGASTRATGIPARFSGSGSGTEFTLTISSLQSEDFALYYCQHYNNWPLTFGGGTKVEIK
notes: as for B2
For the molecule B8, the binding result is recorded as “no binding”.

B9: H1H6967N (antibody, human IgG1, V domains shown)
VH: EVQLVESGGDLVHPGRSLRLSCAASGFPFDEYAMHWVRQVPGKGLEWVSGISWSNNNIGYADSVKGRFTISRDNAKNSLYLQMNSLRPEDTAFYYCAKSGIFDSWGQGTLVTVSS
VL: EIVMTQSPATLSVSPGERATLSCRASQSVSRDLAWYQQKPGQAPRLLIHGASTRATGIPARFSGSGSGAEFTLIISSLQSEDFAVYYCQQYNNWPLTFGGGTKVEIK
notes: as for B2
Regarding B9, the binding result was “no binding”.

B10: H1H6797P (antibody, human IgG1, V domains shown)
VH: EVQLVESGGGLVQPGGSLRLSCIVSGFTFSGSWMSWVRQLPGKGLEWVANIKEDGSDSYYVDSVEGRFTISRDNAKSSLYLQMNSLRVDDTAVYFCARARTVPLHYWGQGTLVTVSS
VL: DIQMTQSPSTLSASVGDRVTITCRASQSINIWLAWYQQKPGKAPKLLIYRASYLESGVPSSFAGGGSGTEFTLTISSLQPDDFGTYYCQHYNSYPFTFGQGTKLEIK
For B10, the binding result is on record as “no binding”.

B11: H1H6975N (antibody, human IgG1, V domains shown)
VH: EVHLVESGGGLVQPGGSLRLSCAASGFTFSSYEMNWVRQTPGKGLEWISHISSRSVIIYYADSVKGRFTISRDNAKNSLFLQMNSLRAEDTAVYFCAGITIFGIPEYWGQGTLVTVSS
VL: EIVLTQSPATLSLSPGERATLSCRASQSVSSYFAWYQQKPGQAPRLLIYDASSRATGIPTRFSGSGSGTDFTLTISSLEPEDFAVYYCQQRSSWPITFGQGTRLEIK
notes: Tested with human IgG1 Fc (H1H); also called H1H6975P
For the molecule B11, the binding result is “no binding”.

B12: H1H6781P (antibody, human IgG1, V domains shown)
VH: EVQLVESGGDLVQPGESLRLSCTASGFTFNSYEMNWVRQAPGKGLEWVSYISSSGGTKYYVDSVKGRFTISRDNAKKSLYLQMNSLRADDTALYYCARLNGVDVFDIWGQGTMVTVSS
VL: DIQMTQSPSSLSASVGDRVTITCRASQDIFNYLAWFQQKPGKVPELLISAASTLQSGVPSRFSGSGSGTYFTLTISSLQPEDIATYYCQRYNSAPLTFGGGTKVEIK
Take B12: the binding result was “no binding”.

B13: H1H6785P (antibody, human IgG1, V domains shown)
VH: EVQLVESGGGLVQPGGSLRLSCAASGFTFSSYEMNWVRQAPGKGLEWISYISSRGGTIYYADSIKGRFTIYRDNARNSLYLQMNSLRAEDTAIYYCARLSGVDIFDIWGQGTMVTVSS
VL: DIQMTQSPSSLSASVGDRVTITCRASQGISNYLAWYQQKPGKVPKLLIYFASTLQSGVPSRFSGGGSGTDFTLTISSLQPEDVATYYCQRYNSAPLTFGGGTKVEIK
Consider B13, for which the binding result is listed as “no binding”.

B14: H1H6765P (antibody, human IgG1, V domains shown)
VH: EVQLVESGGGVVRPGGSLRLSCVGSGFSFDDHGMNWVRQGPGKGLEWVSGFNWNGGSTNYAESVKGRFTISRDNARNSLFLQMNSLRAEDTALYYCVRGRSGWFNDAFDVWGPGTMVTVSS
VL: EIVLTQSPGTLSLSPGERATLSCRASQTINSNYLAWYRQKPGQTPRLLIYGTSSRATGIPDRFSGSGSGTDFSLTISRLEPEDFAVFYCQQYAGLPTFGPGTKVDIK
On to B14, for which the binding result is “no binding”.

B15: H1H6795P (antibody, human IgG1, V domains shown)
VH: QVQLVQSGAEVKKPGASVKVSCKASGYTFGTSGITWVRQAPGQGLEWMGWSSAYNGKTDYAQKFQDRVTMTTDTSTTTGYMEMRSLTSDDTAVYYCTTVVRRPFDFWGQGTLVTVSS
VL: DIQMTQSPSSLSASVGDRVTITCRASQDINNFLAWFQQKPGKAPKSLIYAASSLQSGVPSKFSGGGSGTDFALTISSLQPEDFATYYCQQYSSYPITFGQGTRLEIK
As to B15, the binding result is reported as “no binding”.

B16: H1H6793P (antibody, human IgG1, V domains shown)
VH: EVQLVESGGGLVQPGGSLRLSCAASGFSFSIYAMSWFRQAPGKGLEWVSAINGRGDGTHYADSVKGRFTISRDNSKTTLYLQMSSLRAEDTAVYYCAKPVMSTNGFDIWGQGTMVTVSS
VL: DIQMTQSPSTLSASVGDRVTITCRASQSISSWLAWYQLKPGKAPKLLIYKASNLESGVPSRFSGSGSGTEFTLTISSLQPDDFATYYCQQYNIYWTFGQGTKVEIK
With B16, the binding result is listed as “no binding”.

B17: H1H6960N (antibody, human IgG1, V domains shown)
VH: EVQLVESGGGLVKPGGSLRLSCAASGITFSSYSMNWVRQAPGKGLEWVSSISTRSSLIHYADSVKGRFTISRDNAKNSLYLQMNSLRDEDTAVYYCARWDAAAAFDYWGQGTLVIVSS
VL: DIQLTQSPSFLSASVGDRVTITCWASQGISSYLAWYQQKPGKAPKLLIYVASTLQSGVPSRFSGSGSGTEFTLTISSLQPEDFATYFCQQLNSYPLTFGGGTKVEIK
notes: as for B2
Turning to B17, the binding result was “no binding”.

B18: H1H6953N (antibody, human IgG1, V domains shown)
VH: EVQLLESGGGLVQPGGTLRLSCAASGFTFSAYAMSWVRQAPGKGLEWVSSINVRAGDTYYADSVKGRFTISRDNSKNTLFLLMNSLRAEDTAAYYCAKARYSSNWGFDFWGQGTLVTVSS
VL: DIVMTQSPDSLTVSLGARTTINCQSSQTILHSSNNHNYLAWYQQKPGLPPKLLIYWSSTRESGVPDRFSGSGSGTDFTLTISSLQAEDVAIYYCQQYSNTPYTFGQGTKLEIN
notes: as for B2
Regarding B18, the binding result is “no binding”.

B19: H1H6976N (antibody, human IgG1, V domains shown)
VH: EVQLLESGGGFVQPGGSLRLSCAASGFTFSSYAMSWVRQAPGKGLEWVSIISSNGRYTYYADSVKGRFTISRDNSKNTLYLQMNSLRAEDTAVYYCATVTGDWFDPWGQGTLVTVSS
VL: DIQLTQSPSFLSASVGDRVTITCWASQDIDISLAWYQQKPGKAPKLLIYAASTLQSGVPSKFSGSGSGTDFTLTISSLQPEDFSTYYCQQLNSYPITFGQGTRLDIK
notes: as for B2
Regarding B19, the binding result is listed as “no binding”.

B20: H1H6803P (antibody, human IgG1, V domains shown)
VH: EVQLVESGGGVVRPGGSLRLSCAASGFKFDDYGMTWVRHVPGKGLEWVSGINWNGGRTGYTDSVKGRFTISRDNAKNSLYLQMNSLRAEDTALYHCAGARRDAFDIWGQGTMVTVSS
VL: DIQMTQSPSSLSASIGDRVTITCRASQNIIKYLNWYQQNAGKAPKLLIYTASSLQSGVPSRFSGSGSGTDFTLTISSLQPEDFATYYCQQSSSSPYTFGQGTKLEIK
For the molecule B20, the binding result is “no binding”.
